Experimental findings from patent publication US8470523B2, “Method for detecting intracellular interaction between biomolecules” (CIS BIO International, priority 2005, dated 2013) are described below.

The structures appear in SMILES notation.

The test system of this data set is CHO-M1 cells. Description: Entry of a fluorophore into cells in culture, fluorescence reader. The settings on record: 2.5 μM or 5 μM in KREBS buffer, 1 hour, FIG. 13.

Method: CHO cells are cultivated at 37° C., under a controlled atmosphere containing 5% of CO2, in F-12 HAM medium (Invitrogen)+10% of fetal calf serum (FCS) previously inactivated for 20 min at 60° C.
On the day before the experiment, CHO-M1 cells are inoculated into a 96-well plate at a density of 10,000 cells per well.
On the day of the experiment, the culture medium is aspirated and replaced with the test compounds at a concentration of 2.5 μM or 5 μM in KREBS buffer (Sigma). After 1 hour of incubation, the wells are washed with a KREBS buffer+0.05% Tween 20. The cells are then lyzed in a PBS buffer+0.1% Triton X100. The fluorescence is measured on an Analyst AD reader (LJL, Molecular Devices) with the filters and the dichroic appropriate for the spectral specificities of the compound to be detected.

With `N=C(N)NCCCC(NC(=O)CCCCCN)C(=O)NCCCCCC(=O)NC(CCCNC(=N)N)C(=O)NCCCCCC(=O)NC(CCCNC(=N)N)C(=O)NCCCCCC(=O)NC(CCCNC(=N)N)C(=O)NCCCCCC(=O)NC(CCCNC(=N)N)C(=O)NCCCCCC(=O)NC(CCCNC(=N)N)C(=O)NCCCCCC(=O)NC(CCCNC(=N)N)C(=O)NC(CSCC(=O)Nc1ccc2c(c1)C1(OC2=O)c2ccc(O)cc2Oc2cc(O)ccc21)C(N)=O` (stereo not shown) [R7fluorescein], the “entry into the cell (fluorescence intensity of lysed cells)” value was “enter the cell”.
